Data on twelve molecules can be found in patent US20220177560A1 (Janssen / Centocor, published 2022).

Where a chain is given by its changes, count along the chain named. Numbers in names are those of the source. Some results are limits rather than exact numbers.

T1: mouse Aβ 3pE-28 peptide (mouse, pyroglutamate (pE) at the N-terminus, residue 3 of Aβ)
T1 construct: also called rodent Aβ3pE-28
T1 peptide: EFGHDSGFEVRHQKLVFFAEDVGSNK

T2: Scrambled 3pE-28 (human)
T2 construct: also called scrambled Aβ 3pE-28; Aβ 3pE-28 peptide with amino acids 3-9 scrambled
T2 peptide: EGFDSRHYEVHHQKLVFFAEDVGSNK

B1: BAMB623 (antibody, human IgG1, kappa, V domains shown)
VH: QVQLVQSGAEVKKPGASVKVSCKASGHVFTSYDMYWVRQAPGQSLEWIGYIDSDNGDTSYNQKFKGKATMTVDTSTSTVYMELSSLRSEDTAVYYCAYYRYAMDYWGQGTLVTVSS
VL: DVVMTQSPLSLPVTLGQPASISCKSSQSLLDSRAKTYLTWLQQRPGQSPRRLIYLVSKLDSGVPDRFSGSGSGTDFTLKISRVEAEDVGVYYCWQGTHFPYTFGGGTKLEIKR
notes: HFA variant of BAMB31, human IgG1
B2: BAMB613 (antibody, human IgG1, kappa, V domains shown)
VH: B1 VH with S44G, A68V, M70L
VL: B1 VL
notes: as for B1
B3: BAMB612 (antibody, human IgG1, kappa, V domains shown)
VH: B1 VH with A40S, S44G, K67R, A68V, M70L
VL: B1 VL
notes: as for B1
B4: BAMB611 (antibody, human IgG1, kappa, V domains shown)
VH: B1 VH with S44G, I48M, K67R, A68V
VL: B1 VL with R33N, A34G, L41F
notes: Human framework adapted (HFA) variant of BAMB31, human IgG1
B5: BAMB614 (antibody, human IgG1, kappa, V domains shown)
VH: B1 VH with S44G, K67R, A68V, M70L
VL: B1 VL
notes: as for B1
B6: BAMB630 (antibody, human IgG1, kappa, V domains shown)
VH: B1 VH with R38K, A68V, M70L
VL: B1 VL with Q42L
notes: as for B1
B7: BAMB631 (antibody, human IgG1, kappa, V domains shown)
VH: B1 VH with I48M, K67R, A68V, M70L
VL: B1 VL with Q42L
notes: as for B1
B8: BAMB246 (human IgG1 chimera) (antibody)
heavy: not shown
light: DVVMTQTPLTLSVTIGQPASISCKSSQSLLDSNGKTYLTWLLQRPGQSPKRLIYLVSKLDSGVPDRFTGSGAGTDFTLKIIRVEAEDLGVYYCWQGTHFPYTFGGGTKLEIKRTVAAPSVFIFPPSDEQLKSGTASVVCLLNNFYPREAKVQWKVDNALQSGNSQESVTEQDSKDSTYSLSSTLTLSKADYEKHKVYACEVTHQGLSSPVTKSFNRGEC
notes: Mouse variable regions on a human IgG1 constant region; also called human chimeric parent; huIgG1 chimera
B9: BAMB674 (antibody, human IgG1, kappa)
heavy: not shown
light: DVVMTQSPLSLPVTLGQPASISCKSSQSLLDSRAKTYLTWLQQRPGQSPRRLIYLVSKLDSGVPDRFSGSGSGTDFTLKISRVEAEDVGVYYCWQGTHFPYTFGGGTKLEIKRTVAAPSVFIFPPSDEQLKSGTASVVCLLNNFYPREAKVQWKVDNALQSGNSQESVTEQDSKDSTYSLSSTLTLSKADYEKHKVYACEVTHQGLSSPVTKSFNRGEC
notes: Lead HFA variant, wild type human IgG1, HCDR2 N55S; also called BAMAB674; BAMB31 HFA mAb, wild type IgG1
B10: BAMB675 (antibody, human IgG1, kappa)
heavy: QVQLVQSGAEVKKPGASVKVSCKASGHVFTSYDMYWVRQAPGQGLEWIGYIDSDSGDTSYNQKFKGRVTLTVDTSTSTVYMELSSLRSEDTAVYYCAYYRYAMDYWGQGTLVTVSSASTKGPSVFPLAPSSKSTSGGTAALGCLVKDYFPEPVTVSWNSGALTSGVHTFPAVLQSSGLYSLSSVVTVPSSSLGTQTYICNVNHKPSNTKVDKKVEPKSCDKTHTCPPCPAPELLGGPSVFLFPPKPKDTLYITREPEVTCVVVDVSHEDPEVKFNWYVDGVEVHNAKTKPREEQYNSTYRVVSVLTVLHQDWLNGKEYKCKVSNKALPAPIEKTISKAKGQPREPQVYTLPPSREEMTKNQVSLTCLVKGFYPSDIAVEWESNGQPENNYKTTPPVLDSDGSFFLYSKLTVDKSRWQQGNVFSCSVMHEALHNHYTQKSLSLSPGK
light: B9 light
notes: Same V regions as BAMB674; human IgG1 with M37Y, S39T, T41E (YTE) in the Fc (numbering on the constant region, GenBank AEV43323); also called BAMB31 HFA mAb, +YTE IgG1; +YTE mAb
B11: BAMB700 (antibody, human IgG1, kappa)
heavy: not shown
light: B9 light with G105Q
B12: BAMB701 (antibody, human IgG1, kappa)
heavy: B10 heavy
light: B9 light with L109V

T6 sequence (peptide, as listed by the source): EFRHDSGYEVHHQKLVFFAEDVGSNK
T4 sequence (Q8SPV9 24-297 limits assumed, chain 1 of 2): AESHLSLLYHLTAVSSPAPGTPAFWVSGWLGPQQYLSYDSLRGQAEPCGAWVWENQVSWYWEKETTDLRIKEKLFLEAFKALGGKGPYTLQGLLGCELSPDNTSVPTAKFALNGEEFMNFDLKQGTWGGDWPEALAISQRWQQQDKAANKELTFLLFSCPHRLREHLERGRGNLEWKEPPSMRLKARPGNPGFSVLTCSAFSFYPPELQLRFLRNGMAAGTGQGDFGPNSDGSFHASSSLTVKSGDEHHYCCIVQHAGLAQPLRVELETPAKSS
T4 sequence (Q8SPW0 21-119 limits assumed, chain 2 of 2): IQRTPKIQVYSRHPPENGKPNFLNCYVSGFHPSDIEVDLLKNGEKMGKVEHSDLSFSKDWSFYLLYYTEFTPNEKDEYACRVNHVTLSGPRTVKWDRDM

For the first assay, the target named is T3, HU-3pE-beta-Amyloid (human).
T3 construct: also called the peptide
The experiment in a line: SPR (per Example 5); antigen peptide not given.
Broadly, the Kd is the equilibrium constant for the complex coming apart. Take B1: binding was put at a Kd of 0.0183 nM.

In the case of B2, binding was characterised by a dissociation constant (Kd) of 0.0182 nM.

In turn, B3 came in with a Kd of 0.0117 nM.

The molecule B4 registered a dissociation constant Kd of 1.52 nM.

B5 registered a dissociation constant (Kd) of 0.016 nM.

B6 had a dissociation constant Kd of 0.0383 nM.

As for B7, binding was put at a Kd of 0.018 nM.

B8 had a Kd of 0.0139 nM.

Another assay has as its target T4, cynomolgus FcRn (cynomolgus, UniProt Q8SPV9 24-297; Q8SPW0 21-119).
T4 construct: the construct is not described; also called FcRn (cyno)
The experiment in a line: FcRn binding affinity; method not described; average of 5-6 replicates.
With B9, the equilibrium dissociation constant (Kd) was found to be 268 nM.

B10 showed a Kd of 86.4 nM.

The next assay deals with T5, human FcRn (human, UniProt P55899 24-297; P61769 21-119).
T5 construct: the construct is not described; also called FcRn (human)
T5 sequence (P55899 24-297 limits assumed, chain 1 of 2): as the sequence (Q8SPV9 24-297 limits assumed, chain 1 of 2) above, with D39N, Q44E, S99G, G189S, N190S, M217L, T269S counted along it
T5 sequence (P61769 21-119 limits assumed, chain 2 of 2): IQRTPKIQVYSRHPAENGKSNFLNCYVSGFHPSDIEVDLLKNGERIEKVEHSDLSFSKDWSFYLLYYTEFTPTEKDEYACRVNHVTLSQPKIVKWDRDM
The assay is described as above.
Molecule B9 yielded a Kd of 349 nM.

Take B10: binding was put at a Kd of 111 nM.

The next assay addresses T6, human Aβ 3pE-28 peptide (human, pyroglutamate (pE) at the N-terminus, residue 3 of Aβ). As to the kind of experiment: SPR; same value as in Table 5.
In turn, B9 yielded a Kd of 0.0254 nM.

Molecule B10 gave a Kd of 0.0257 nM.

The target in another assay is T1, mouse Aβ 3pE-28 peptide. The experiment in a line: SPR; KD for this peptide divided by the KD for human 3pE Aβ.
Turning to B8, the “Fold Selectivity” value amounted to 3140 fold.

With B9, the “Fold Selectivity” value turned out to be 1790 fold.

As to B10, the “Fold Selectivity” value amounted to 3010 fold.

Another assay concerns the target T3, HU-3pE-beta-Amyloid. As to the kind of experiment: SPR; HU-3pE-beta-Amyloid 0.6 to 4.5 nM. A general note: SPR reads the build-up and loss of mass on a sensor chip optically.
As usually defined, the koff is the rate constant with which the complex falls apart. Read a low koff as a long-lived complex. In general, kon refers to the second-order rate constant of association. A higher kon goes with faster complex formation. B9 had a dissociation constant Kd of 0.0401 nM, a koff of 0.000136 s⁻¹ and a kon of 3.39e+06 M⁻¹ s⁻¹.

The molecule B11 displayed a dissociation constant Kd of 0.0342 nM, a dissociation rate constant (koff) of 9.86e-05 s⁻¹ and a kon of 2.88e+06 M⁻¹ s⁻¹.

Regarding B12, the equilibrium dissociation constant (Kd) is 0.0314 nM, the off-rate (koff) is 9.47e-05 s⁻¹ and the kon is 3.01e+06 M⁻¹ s⁻¹.

Consider B10, for which binding was characterised by a dissociation constant (Kd) of 0.0443 nM, the dissociation rate constant (koff) turned out to be 0.000166 s⁻¹ and the association rate constant (kon) worked out at 3.74e+06 M⁻¹ s⁻¹.

The target in another assay is human Aβ 1-28 peptide (human). The experiment in a line: SPR; no binding up to the maximum 1.2 µM tested.
human Aβ 1-28 peptide (human), sequence (peptide, as listed by the source): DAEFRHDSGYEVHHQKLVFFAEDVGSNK
With B8, the dissociation constant Kd is more than 1200 nM.

Molecule B9 returned a Kd of more than 1200 nM.

For the molecule B10, the Kd is more than 1200 nM.

Another assay has as its target T2, Scrambled 3pE-28. As to the kind of experiment: SPR; no binding up to the maximum 1.2 µM tested.
For B8, the Kd is more than 1200 nM.

With B9, the Kd is more than 1200 nM.

As to B10, the Kd is more than 1200 nM.

For a further assay, the target named is T6, human Aβ 3pE-28 peptide. As to the kind of experiment: SPR, antibody captured on anti-human or anti-mouse Ig chip, peptide injected, 1:1 fit; N=9.
In turn, B8 came in with a dissociation constant (Kd) of 0.0126 nM, an off-rate (koff) of 4.42e-05 s⁻¹ and a kon of 3.53e+06 M⁻¹ s⁻¹.

As to B9, the affinity, expressed as Kd, was 0.0254 nM; the koff is 8.32e-05 s⁻¹; the on-rate constant (kon) came to 3.27e+06 M⁻¹ s⁻¹.

B10 yielded a dissociation constant Kd of 0.0257 nM, an off-rate (koff) of 8.24e-05 s⁻¹ and an on-rate (kon) of 3.24e+06 M⁻¹ s⁻¹.

For a further assay, the target named is T4, cynomolgus FcRn. As to the kind of experiment: FcRn binding affinity; method not described.
Regarding B10, the “fold higher affinity compared with wt IgG1 (BAMB674)” value is approximately 3 fold.

The target in another assay is T5, human FcRn. The experiment in a line: FcRn binding affinity; method not described.
In the case of B10, the “fold higher affinity compared with wt IgG1 (BAMB674)” value is approximately 3 fold.

In another assay the target is human Aβ 1-28 peptide (human). As to the kind of experiment: SPR; KD limit divided by the KD for human 3pE Aβ.
As to B8, the “Fold Selectivity” value was more than 95000 fold.

For B9, the “Fold Selectivity” value is more than 47000 fold.

Take B10: the “Fold Selectivity” value was more than 46000 fold.

Another assay addresses T2, Scrambled 3pE-28. The experiment in a line: SPR; KD limit divided by the KD for human 3pE Aβ.
Turning to B8, the “Fold Selectivity” value was more than 95000 fold.

B9: the “Fold Selectivity” value is more than 47000 fold.

Consider B10, for which the “Fold Selectivity” value was more than 46000 fold.

Another assay concerns the target T1, mouse Aβ 3pE-28 peptide. The experiment in a line: SPR, antibody captured, peptide injected, 1:1 fit.
B8 displayed a Kd of 39.6 nM, a koff of 0.000404 s⁻¹ and a kon of 10200 M⁻¹ s⁻¹.

On to B9, for which the equilibrium dissociation constant (Kd) stood at 45.5 nM, the off-rate constant (koff) amounted to 0.000338 s⁻¹ and the kon was found to be 7400 M⁻¹ s⁻¹.

As for B10, binding was put at a Kd of 77.5 nM, the koff was 0.000333 s⁻¹ and the kon is 4680 M⁻¹ s⁻¹.
